Assay results from paper PMC12407261.

Legend:
[1] = target: Streptomyces lydicus Family 2B encapsulin shell protein Sl‐Enc2 with N‐terminal His‐tag (Streptomyces lydicus); test: cryo-EM structure; Sl‐Enc2 majority mixed sample, 2 mg/mL in 150 mM NaCl, 25 mM Tris pH 8.0; consensus refinement with icosahedral symmetry imposed, 2.59 Å
[2] = target: Streptomyces lydicus Family 2B encapsulin shell protein Sl‐Enc1 with N‐terminal His‐tag (Streptomyces lydicus); test: affinity purification with mass spectrometry; two-gene operon co-expressed in E. coli BL21 (DE3), only one of the two shell proteins His-tagged; Ni-NTA then SEC; SDS-PAGE bands identified by tryptic digest and LC-MS; ratio by gel densitometry

| stoichiometry N [1] | apparent share of Sl‐Enc1 in the purified mixed shells (gel densitometry) [2] [%] | apparent share of Sl‐Enc2 in the purified mixed shells (gel densitometry) [2] [%] | Substance |
| --- | --- | --- | --- |
| 60 |  |  | Streptomyces lydicus Family 2B encapsulin shell protein Sl‐Enc2 with N‐terminal His‐tag (natural protein) |
|  | 60 | 40 | Streptomyces lydicus Family 2B encapsulin shell protein Sl‐Enc2, untagged (natural protein) |
